# Test results: patent publication US20230135471A1, “UBIQUITIN VARIANTS WITH IMPROVED AFFINITY FOR 53BP1” (Integrated DNA Technologies, Inc., priority 2021, published 2023)
# Target: 53BP1 fragment (a.a. 1221-1718) fused to an adenylate cyclase fragment (two-hybrid) (UniProt Q12888)
# Assay: cell-based or functional assay
Substance,Experiment 1 Average Enrichment [log2],Experiment 1 Rep 1 Enrichment [log2],Experiment 1 Rep 2 Enrichment [log2],Experiment 2 Average Enrichment [log2],Experiment 2 Rep 1 Enrichment [log2],Experiment 2 Rep 2 Enrichment [log2],Percent GFP Positive Rep 1 [%],Percent GFP Positive Rep 2 [%],Percent GFP Positive Rep 3 [%]
i53 + N25I two-hybrid fusion (designed binder),0.83,0.85,0.81,0.4,0.41,0.39,–,–,–
i53 + N25F two-hybrid fusion (designed binder),0.38,0.42,0.34,-0.04,0.12,-0.2,–,–,–
i53 + N25M two-hybrid fusion (designed binder),0.5,0.5,0.5,0.45,0.46,0.43,–,–,–
i53 + K63F two-hybrid fusion (designed binder),-0.02,-0.01,-0.02,0.08,-0.06,0.22,–,–,–
i53 + R42Y two-hybrid fusion (designed binder),1.57,1.44,1.69,1.19,1.13,1.26,–,–,–
i53 + R42S two-hybrid fusion (designed binder),-0.08,-0.13,-0.02,0.23,0.05,0.41,–,–,–
i53 + L67K two-hybrid fusion (designed binder),2.01,2.08,1.93,0.89,1.4,0.39,24.2,11.2,21.5
i53 + I61L two-hybrid fusion (designed binder),1.06,1.1,1.02,0.67,0.75,0.59,15.9,17.6,17.2
i53 + K48R two-hybrid fusion (designed binder),0.35,0.39,0.32,0.14,0.09,0.19,–,–,–
i53 + A28I two-hybrid fusion (designed binder),0.05,-0.45,0.56,0.05,0.37,-0.28,–,–,–
i53 + P38C two-hybrid fusion (designed binder),1.52,1.21,1.83,0.52,0.46,0.57,–,–,–
i53 + R42F two-hybrid fusion (designed binder),1.88,1.99,1.77,1.26,1.4,1.13,–,–,–
i53 + P38H two-hybrid fusion (designed binder),0.26,0.87,-0.35,0.58,0.33,0.83,–,–,–
i53 + L73M two-hybrid fusion (designed binder),2.61,2.69,2.52,1.43,1.58,1.28,36.2,29.2,39.5
i53 + N25S two-hybrid fusion (designed binder),0.26,0.18,0.34,0.33,0.27,0.38,–,–,–
i53 + L67S two-hybrid fusion (designed binder),1.18,1.15,1.2,0.94,1.24,0.63,–,–,–
i53 + R74I two-hybrid fusion (designed binder),0.83,0.84,0.83,0.61,0.63,0.58,–,–,–
i53 + A28Q two-hybrid fusion (designed binder),0.44,0.47,0.42,0.14,0.59,-0.31,–,–,–

Substance,Experiment 1 Average Enrichment [log2],Experiment 1 Rep 1 Enrichment [log2],Experiment 1 Rep 2 Enrichment [log2],Experiment 2 Average Enrichment [log2],Experiment 2 Rep 1 Enrichment [log2],Experiment 2 Rep 2 Enrichment [log2],Percent GFP Positive Rep 1 [%],Percent GFP Positive Rep 2 [%],Percent GFP Positive Rep 3 [%]
i53 + S57E two-hybrid fusion (designed binder),0.45,0.28,0.62,0.35,0.42,0.28,–,–,–
i53 + E18F two-hybrid fusion (designed binder),0.51,0.09,0.93,0.54,0.22,0.87,–,–,–
i53 + R42N two-hybrid fusion (designed binder),1.12,1.18,1.05,1.01,1.34,0.68,–,–,–
i53 + S20A two-hybrid fusion (designed binder),0.14,0.3,-0.02,-0.26,-0.26,-0.25,–,–,–
i53 + K48L two-hybrid fusion (designed binder),0.05,0.05,0.04,0.2,0.28,0.12,–,–,–
i53 + K63M two-hybrid fusion (designed binder),-0.07,-0.24,0.09,0.2,0.18,0.22,–,–,–
i53 + M1Q two-hybrid fusion (designed binder),1.31,1.23,1.38,0.68,0.58,0.79,–,–,–
i53 + S65A two-hybrid fusion (designed binder),1.15,1.29,1.01,0.95,1.17,0.73,–,–,–
i53 + Q41V two-hybrid fusion (designed binder),-0.14,-0.37,0.1,0.05,0.13,-0.03,–,–,–
i53 + D39S two-hybrid fusion (designed binder),-1.51,-2.04,-0.99,0.04,0.16,-0.08,–,–,–
i53 + K66R two-hybrid fusion (designed binder),-0.69,-0.84,-0.54,0.55,0.13,0.97,–,–,–
i53 + K33C two-hybrid fusion (designed binder),1.96,2.85,1.07,0.77,0.55,0.99,–,–,–
i53 + S49E two-hybrid fusion (designed binder),0.44,0.84,0.04,0.81,0.96,0.67,–,–,–
i53 + T55R two-hybrid fusion (designed binder),-0.06,0.11,-0.22,0.12,0.19,0.05,–,–,–
i53 + A28D two-hybrid fusion (designed binder),0.02,-0.25,0.29,-0.41,-0.24,-0.58,–,–,–
i53 + N25E two-hybrid fusion (designed binder),0.56,0.28,0.84,0.62,0.61,0.64,–,–,–
i53 + S49L two-hybrid fusion (designed binder),1,0.85,1.15,0.88,0.97,0.8,18.8,13.6,17.7
